From FireProtDB (doi:10.1093/protein/14.11.891)

Conditions: Salmonella typhimurium (strain LT2 / SGSC1412 / ATCC 700720), pH 7, CD, Potassium phosphate 10 mM, reversible: yes, whole UniProt chain shown

B1: Sialidase wild type, P29768 (protein)
chain: MTVEKSVVFKAEGEHFTDQKGNTIVGSGSGGTTKYFRIPAMCTTSKGTIVVFADARHNTASDQSFIDTAAARSTDGGKTWNKKIAIYNDRVNSKLSRVMDPTCIVANIQGRETILVMVGKWNNNDKTWGAYRDKAPDTDWDLVLYKSTDDGVTFSKVETNIHDIVTKNGTISAMLGGVGSGLQLNDGKLVFPVQMVRTKNITTVLNTSFIYSTDGITWSLPSGYCEGFGSENNIIEFNASLVNNIRNSGLRRSFETKDFGKTWTEFPPMDKKVDNRNHGVQGSTITIPSGNKLVAAHSSAQNKNNDYTRSDISLYAHNLYSGEVKLIDDFYPKVGNASGAGYSCLSYRKNVDKETLYVVYEANGSIEFQDLSRHLPVIKSYN
denaturant midpoint (higher = more stable) (25 °C, GdnHCl): 1.33 M | unfolding free energy (25 °C, GdnHCl): 4.24 kcal/mol | Tm (Thermal): 57 °C
